Experiments:
Assay in all cases: split reporter
Kre5p = biological target: T1, Kre5p (S. cerevisiae, UniProt P22023 18-1365)
T1 sequence: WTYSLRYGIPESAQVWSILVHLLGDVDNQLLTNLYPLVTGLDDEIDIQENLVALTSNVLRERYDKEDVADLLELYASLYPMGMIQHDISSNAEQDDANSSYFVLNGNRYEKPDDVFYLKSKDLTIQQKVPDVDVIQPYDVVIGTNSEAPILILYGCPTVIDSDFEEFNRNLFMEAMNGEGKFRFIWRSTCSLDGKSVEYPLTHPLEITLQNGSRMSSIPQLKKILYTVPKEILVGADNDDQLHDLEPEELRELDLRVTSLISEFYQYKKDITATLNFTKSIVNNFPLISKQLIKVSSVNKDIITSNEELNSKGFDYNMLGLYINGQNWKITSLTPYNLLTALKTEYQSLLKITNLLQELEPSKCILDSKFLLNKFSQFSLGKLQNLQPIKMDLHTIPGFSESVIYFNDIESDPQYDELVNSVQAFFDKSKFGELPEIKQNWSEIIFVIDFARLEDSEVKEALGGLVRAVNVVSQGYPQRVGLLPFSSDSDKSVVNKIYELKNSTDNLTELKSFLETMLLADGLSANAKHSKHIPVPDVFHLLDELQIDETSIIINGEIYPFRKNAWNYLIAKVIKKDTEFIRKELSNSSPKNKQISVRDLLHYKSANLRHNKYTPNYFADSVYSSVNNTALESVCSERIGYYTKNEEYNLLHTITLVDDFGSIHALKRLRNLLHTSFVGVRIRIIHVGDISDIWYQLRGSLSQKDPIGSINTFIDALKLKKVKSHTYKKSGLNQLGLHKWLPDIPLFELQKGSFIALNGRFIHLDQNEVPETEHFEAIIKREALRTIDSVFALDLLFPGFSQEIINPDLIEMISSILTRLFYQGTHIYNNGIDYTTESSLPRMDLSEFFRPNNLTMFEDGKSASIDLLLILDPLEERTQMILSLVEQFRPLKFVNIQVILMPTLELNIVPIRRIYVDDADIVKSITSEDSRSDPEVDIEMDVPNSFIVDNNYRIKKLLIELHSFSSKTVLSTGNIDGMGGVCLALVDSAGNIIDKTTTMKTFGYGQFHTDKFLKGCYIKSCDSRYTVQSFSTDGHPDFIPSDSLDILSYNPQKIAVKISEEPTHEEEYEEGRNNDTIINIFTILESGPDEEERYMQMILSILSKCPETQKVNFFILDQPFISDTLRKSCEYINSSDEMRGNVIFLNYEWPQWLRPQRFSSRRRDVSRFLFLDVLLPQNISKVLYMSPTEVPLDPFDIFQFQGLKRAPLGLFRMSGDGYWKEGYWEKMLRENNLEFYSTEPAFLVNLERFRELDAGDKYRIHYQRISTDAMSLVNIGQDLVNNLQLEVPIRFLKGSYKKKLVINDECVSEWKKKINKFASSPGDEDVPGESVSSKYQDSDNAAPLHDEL

Sec20p = biological target: T2, Sec20p (S. cerevisiae, UniProt P28791 1-383)
T2 sequence: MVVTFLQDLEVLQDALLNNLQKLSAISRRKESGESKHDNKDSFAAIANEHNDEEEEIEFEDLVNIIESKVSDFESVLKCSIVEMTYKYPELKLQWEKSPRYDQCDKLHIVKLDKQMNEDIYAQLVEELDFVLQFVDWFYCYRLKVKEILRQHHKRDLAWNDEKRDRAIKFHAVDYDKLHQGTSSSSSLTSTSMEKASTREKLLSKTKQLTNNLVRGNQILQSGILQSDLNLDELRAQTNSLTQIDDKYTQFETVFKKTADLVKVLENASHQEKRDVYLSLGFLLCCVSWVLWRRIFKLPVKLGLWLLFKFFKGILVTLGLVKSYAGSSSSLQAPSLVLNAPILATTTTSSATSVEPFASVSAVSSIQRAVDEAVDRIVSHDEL

Yos9p = biological target: T3, Yos9p (S. cerevisiae, UniProt Q99220 22-542)
T3 sequence: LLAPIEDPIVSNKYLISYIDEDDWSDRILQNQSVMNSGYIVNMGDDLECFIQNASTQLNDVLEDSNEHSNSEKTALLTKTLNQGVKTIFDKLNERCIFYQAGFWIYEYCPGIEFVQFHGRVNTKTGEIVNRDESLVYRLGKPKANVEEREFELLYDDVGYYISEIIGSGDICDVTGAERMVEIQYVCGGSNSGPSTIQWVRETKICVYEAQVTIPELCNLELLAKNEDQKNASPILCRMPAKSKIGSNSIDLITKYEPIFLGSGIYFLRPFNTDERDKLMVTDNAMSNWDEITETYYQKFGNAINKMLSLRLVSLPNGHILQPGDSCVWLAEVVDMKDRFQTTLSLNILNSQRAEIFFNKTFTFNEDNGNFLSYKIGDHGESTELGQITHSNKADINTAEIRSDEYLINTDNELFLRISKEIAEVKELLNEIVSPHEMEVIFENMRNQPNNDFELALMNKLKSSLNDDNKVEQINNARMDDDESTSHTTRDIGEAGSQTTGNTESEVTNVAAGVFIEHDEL

B1: Lhs1p (natural protein)
chain: AVLGVDYGQQNIKAIVVSPQAPLELVLTPEAKRKEISGLSIKRLPGYGKDDPNGIERIYGSAVGSLATRFPQNTLLHLKPLLGKSLEDETTVTLYSKQHPGLEMVSTNRSTIAFLVDNVEYPLEELVAMNVQEIANRANSLLKDRDARTEDFVNKMSFTIPDFFDQHQRKALLDASSITTGIEETYLVSEGMSVAVNFVLKQRQFPPGEQQHYIVYDMGSGSIKASMFSILQPEDTTQPVTIEFEGYGYNPHLGGAKFTMDIGSLIENKFLETHPAIRTDELHANPKALAKINQAAEKAKLILSANSEASINIESLINDIDFRTSITRQEFEEFIADSLLDIVKPINDAVTKQFGGYGTNLPEINGVILAGGSSRIPIVQDQLIKLVSEEKVLRNVNADESAVNGVVMRGIKLSNSFKTKPLNVVDRSVNTYSFKLSNESELYDVFTRGSAYPNKTSILTNTTDSIPNNFTIDLFENGKLFETITVNSGAIKNSYSSDKCSSGVAYNITFDLSSDRLFSIQEVNCICQSENDIGNSKQIKNKGSRLAFTSEDVEIKRLSPSERSRLHEHIKLLDKQDKERFQFQENLNVLESNLYDARNLLMDDEVMQNGPKSQVEELSEMVKVYLDWLEDASFDTDPEDIVSRIREIGILKKKIELYMDSAKEPLNSQQFKGMLEEGHKLLQAIETHKNTVEEFLSQFETEFADTIDNVREEFKKIKQPAYVSKALSTWEETLTSFKNSISEIEKFLAKNLFGEDLREHLFEIKLQFDMYRTKLEEKLRLIKSGDESRLNEIKKLHLRNFRLQKRKEEKLKRKLEQEKSRNNNETESTVINSADDKTTIVNDKTTESNPSSEEDILHDEL
In the case of B1, the normalized interacting score (Kre5p) is reported as > 40%, the normalized interacting score (Sec20p) is reported as 20% and the normalized interacting score (Yos9p) is reported as > 40%.
